Experimental data published in patent publication US20260297195 (published 2026).

B1: PDL1-1v5 (antibody, V domains shown)
VH: EVQLLESGGGLVQPGGSLRLSCAASGFTVSNSAVSWARQAPGKGLEWVSLIDSNRNTVYAQSVRGRFTISRDNVKNTVYLQMNSLRAEDTAVYYCAKGWGSTLWGQGTTVTVSS
B2: NbPDL1-14-Fc (antibody, V domains shown)
VH: QVQLQESGGGLVQPGGSLRLSCAASGIISDINMVAWYRQAPGKQRELVAKIFRGGSTYYTDFVKGRFTISRENAKNTVYLQMNSLKPDDTAVYYCNARIQIRADRDYSDYWGQGTQVTVSS
B3: PDL1-1v6 (antibody, V domains shown)
VH: EVQLLESGGGLVQPGGSLRLSCAASGFTVSNSAVSWARQAPGKGLEWVSLIDSNRNTVYAQSVRGRFTISRDNSKNTVYLQMNSLKAEDTAVYYCAKGIWGSTLWGQGTTVTVSS
B4: PDL1-14 (antibody, V domains shown)
VH: B2 VH

Assays:
human PDL1-Fc [1] = molecular target: human PDL1-Fc (human); test: ELISA
human PDL1-Fc [2] = molecular target: human PDL1-Fc (human); test: BLI
human PDL1-His = human PDL1-His (human); test: SPR 25C
Sequence of human PDL1-His (human) (chain, as listed by the source): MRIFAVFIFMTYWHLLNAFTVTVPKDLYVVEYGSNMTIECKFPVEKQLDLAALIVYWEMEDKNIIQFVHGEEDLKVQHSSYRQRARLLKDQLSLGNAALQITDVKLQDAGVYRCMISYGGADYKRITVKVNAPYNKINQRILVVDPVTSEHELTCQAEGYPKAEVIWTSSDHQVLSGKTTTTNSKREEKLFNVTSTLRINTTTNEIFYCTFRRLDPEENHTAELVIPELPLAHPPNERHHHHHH

Sequence of human PDL1-Fc (human) (chain, as listed by the source): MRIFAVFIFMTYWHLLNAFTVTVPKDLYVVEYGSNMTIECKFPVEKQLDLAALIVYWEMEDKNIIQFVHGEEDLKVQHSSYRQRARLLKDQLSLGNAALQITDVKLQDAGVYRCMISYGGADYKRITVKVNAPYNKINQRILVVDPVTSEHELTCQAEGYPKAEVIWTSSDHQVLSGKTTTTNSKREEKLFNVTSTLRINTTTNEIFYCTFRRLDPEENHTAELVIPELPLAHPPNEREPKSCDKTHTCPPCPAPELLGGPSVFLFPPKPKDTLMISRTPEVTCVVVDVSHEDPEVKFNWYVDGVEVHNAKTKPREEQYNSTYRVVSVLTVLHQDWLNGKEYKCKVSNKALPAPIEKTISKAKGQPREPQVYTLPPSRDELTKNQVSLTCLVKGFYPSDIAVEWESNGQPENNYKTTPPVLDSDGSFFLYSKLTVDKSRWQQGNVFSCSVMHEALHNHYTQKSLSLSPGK

Row | Binder | EC50 (human PDL1-Fc [1]) | Kd (human PDL1-Fc [2]) | binding result (human PDL1-His)
1 | B1 | 0.0478 µg/mL | 12.2 nM | 
2 | B2 |  |  | no binding
3 | B3 |  | 22 nM | 
4 | B4 |  |  | no binding
